Measured values reported in patent publication US20250206820A1 (NGM BIOPHARMACEUTICALS, published 2025).
Where a chain is given by its changes, count along the chain named. Read-outs that look alike come from different tables or passages of the source.

Columns and labels:
[1] = biological target: T1, human ILT3 (as used in the affinity measurements) (human, UniProt Q8NHJ6 22-259, limits assumed); assay: comparison of the affinity of Hz45G10 for human ILT3 with that of the CD3 scFv for CD3
T1 construct: also called immunoglobulin-like transcript 3

[2] = biological target: T1, human ILT3 (as used in the affinity …); assay: column 'ILT3 Affinity (nM)'; method and format not stated
[3] = biological target: T2, ILT3 on target cells (MOLM13, OCI-AML-2, NALM-1, THP-1, MM1S, H929, U226B1 and other lines) (human, UniProt Q8NHJ6 22-448); assay: cell-based or functional assay
[4] = biological target: T2, ILT3 on target cells (MOLM13, …); assay: cell-based or functional assay; remark: listed apart in the source
[5] = biological target: T2, ILT3 on target cells (MOLM13, …); assay: cell-based or functional assay; remark: listed apart in the source
[6] = biological target: T2, ILT3 on target cells (MOLM13, …); assay: cell-based or functional assay; remark: listed apart in the source
[7] = biological target: T2, ILT3 on target cells (MOLM13, …); assay: cell-based or functional assay; remark: listed apart in the source
[8] = biological target: T2, ILT3 on target cells (MOLM13, …); assay: cell-based or functional assay; remark: listed apart in the source
[9] = biological target: T3, CD3 (as used in the affinity measurements) (human, UniProt P07766 23-126); assay: SPR
T3 construct: the description gives human CD3 as UniProtKB P07766; also called human CD3
T3 sequence (P07766 23-126): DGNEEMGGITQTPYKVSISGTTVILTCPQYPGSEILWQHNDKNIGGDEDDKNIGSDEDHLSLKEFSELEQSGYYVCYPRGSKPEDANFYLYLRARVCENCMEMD

B1: Hz45G10 anti-ILT3 antibody (antibody, V domains shown)
VH: EVQLVESGGGLVQPGGSLRLSCAASGFTFSDYGMHWVRQAPGKGLEWVAYIFSGSSTIYYADTVKGRFTISRDNAKNSLYLQMNSLRAEDTAVYYCARADGRGAMDYWGQGTLVTVSS
VL: DIQMTQSPSSLSASVGDRVTITCRASQDISKFLNWYQQKPGKAPKLLIYYTSRLHSGVPSRFSGSGSGTDFTFTISSLQPEDIATYFCQQGNTLPWTFGGGTKLEIK
fold higher affinity than the CD3 scFv (for CD3) [1]: 38 fold | Kd [2]: 0.13 nM

B2: 3A3 anti-ILT3 antibody (antibody, V domains shown)
VH: QVQLKESGPGLVAPSQSLSITCTVSGFSLTSYGVHWVRQPPGKGLEWLGVIWPGGTINYNSALMSRLSISKDNSKSQVFLKLNSLQTDDTAMYYCASDKYDGGWFAYWGQGTLVTVSA
VL: DIVMTQSQKFMSTSVGDRVSITCKASQNVRTAVAWYQQKPGQSPEALIYLASNRHTGVPDRFTGSGSGTDFSLSISNVQSEDLADYFCLQHLNYPLTFGSGTKLEIK
Kd [2]: 2 nM

B3: 48A6 anti-ILT3 antibody (antibody, V domains shown)
VH: EVQLVESGGDLMKPGGSLKLSCAASGFTFSSYGMSWVRQTPDKRLEWVATISSGGTYTFYPDSVKGRFTISRDNAKNTLYLQMSSLKSEDTAMYYCARRGWLLHYYAMDYWGQGTSVTVSS
VL: NIVLTQSPASLAVSLGQRATISCRPSESVDSFGNSFMHWFQQKPGQPPKLLIYLSSKLESGVPARFSGSGSRTDFTLTIDPVEADDAATYYCQQHNEDPFTFGSGTKLEIK
Kd [2]: 0.08 nM

B4: 53F10 anti-ILT3 antibody (antibody, V domains shown)
VH: EVQVVESGGGLVKPGGSLKLSCAASGFTFSDYGMHWVRQAPEKGLEWVAYISTGIITVYYADTVKGRFTMSRDNAKNTLFLQMTSLRSEDTAIYYCARADGRGAMDYWGQGTSVIVSS
VL: DIQMTQTTSSLSASLGDRVTISCRASQDISNFLNWYQQKPDGTVTLLIYYTSRLHSGVPSRFSGSGSGTDYSLTISNLEQEDFATYFCQQGNTLPWTFGGGTKLEIK
Kd [2]: 0.25 nM

B5: ABX1446, ILT3xCD3 bispecific antibody, format F0 (bispecific antibody, human IgG1, kappa, L234A L235A)
chain: EVQLLESGGGLVQPGGSLKLSCAASGFTFNTYAMNWVRQAPGKCLEWVARIRSKYNNYATYYADSVKDRFTISRDDSKNTAYLQMNNLKTEDTAVYYCVRHGNFGNSYVSWFAYWGQGTLVTVSSGGGGSGGGGSGGGGSELVVTQEPSLTVSPGGTVTLTCRSSTGAVTTSNYANWVQQKPGQAPRGLIGGTNKRAPGTPARFSGSLLGGKAALTLSGVQPEDEAEYYCALWYSNLWVFGCGTKLTVLGGGGSDKTHTCPPCPAPEAAGGPSVFLFPPKPKDTLMISRTPEVTCVVVDVSHEDPEVKFNWYVDGVEVHNAKTKPREEQYNSTYRVVSVLTVLHQDWLNGKEYKCKVSNKALPAPIEKTISKAKGQPREPQVYTLPPSREEMTKNQVSLSCAVKGFYPSDIAVEWESNGQPENNYKTTPPVLDSDGSFFLVSKLTVDKSRWQQGNVFSCSVMHEALHNHYTQKSLSLSPGK
heavy: EVQLVESGGGLVQPGGSLRLSCAASGFTFSDYGMHWVRQAPGKGLEWVAYIFSGSSTIYYADTVKGRFTISRDNAKNSLYLQMNSLRAEDTAVYYCARADGRGAMDYWGQGTLVTVSSASTKGPSVFPLAPSSKSTSGGTAALGCLVKDYFPEPVTVSWNSGALTSGVHTFPAVLQSSGLYSLSSVVTVPSSSLGTQTYICNVNHKPSNTKVDKKVEPKSCDKTHTCPPCPAPEAAGGPSVFLFPPKPKDTLMISRTPEVTCVVVDVSHEDPEVKFNWYVDGVEVHNAKTKPREEQYNSTYRVVSVLTVLHQDWLNGKEYKCKVSNKALPAPIEKTISKAKGQPREPQVYTLPPSREEMTKNQVSLWCLVKGFYPSDIAVEWESNGQPENNYKTTPPVLDSDGSFFLYSKLTVDKSRWQQGNVFSCSVMHEALHNHYTQKSLSLSPGK
light: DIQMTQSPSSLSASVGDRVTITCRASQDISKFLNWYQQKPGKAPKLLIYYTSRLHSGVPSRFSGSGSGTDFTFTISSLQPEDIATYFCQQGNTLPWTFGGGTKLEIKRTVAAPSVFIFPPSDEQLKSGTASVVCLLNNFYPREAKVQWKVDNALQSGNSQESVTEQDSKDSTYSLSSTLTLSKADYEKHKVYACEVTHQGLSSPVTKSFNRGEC
TDCC, EC50 (pM), H929 cells [3]: 18.6 pM | TDCC, EC50 (pM), MM1S cells [3]: 18.6 pM | TDCC, EC50 (pM), U226B1 cells [3]: 6.5 pM | TDCC vs. NKM-1 Cells, EC50 (pM), naive T cells from PBMCs [4]: 20.4 pM | TDCC vs. OCI-AML-2 Cells, EC50 (pM), naive T cells from PBMCs [4]: 2.5 pM | TDCC vs. NALM-1 Cells, EC50 (pM), expanded T cells [5]: 5.7 pM | TDCC vs. OCI-AML-2 Cells, EC50 (pM), expanded T cells [5]: 13.5 pM | PBMC Cytotoxicity, EC50 (pM), MOLM13 cells, naive T cells from PBMCs [6]: 46.8 pM | TDCC, EC50 (pM), MOLM13 cells, expanded T cells [6]: 10.9 pM | TDCC, EC50 (pM), MOLM13 cells [7]: 11 pM | TDCC, EC50 (pM), MOLM13 cells, expanded T cells [8]: 0.9 pM

B6: ABX1520, ILT3xCD3 bispecific antibody, format F13 (bispecific antibody, human IgG1, kappa, L234A L235A)
chain: B5 chain
heavy: EVQLVESGGGLVQPGGSLRLSCAASGFTFSDYGMHWVRQAPGKGLEWVAYIFSGSSTIYYADTVKGRFTISRDNAKNSLYLQMNSLRAEDTAVYYCARADGRGAMDYWGQGTLVTVSSASTKGPSVFPLAPSSKSTSGGTAALGCLVKDYFPEPVTVSWNSGALTSGVHTFPAVLQSSGLYSLSSVVTVPSSSLGTQTYICNVNHKPSNTKVDKKVEPKSCGGGGSEVQLVESGGGLVQPGGSLRLSCAASGFTFSDYGMHWVRQAPGKGLEWVAYIFSGSSTIYYADTVKGRFTISRDNAKNSLYLQMNSLRAEDTAVYYCARADGRGAMDYWGQGTLVTVSSASTKGPSVFPLAPSSKSTSGGTAALGCLVKDYFPEPVTVSWNSGALTSGVHTFPAVLQSSGLYSLSSVVTVPSSSLGTQTYICNVNHKPSNTKVDKKVEPKSCDKTHTCPPCPAPEAAGGPSVFLFPPKPKDTLMISRTPEVTCVVVDVSHEDPEVKFNWYVDGVEVHNAKTKPREEQYNSTYRVVSVLTVLHQDWLNGKEYKCKVSNKALPAPIEKTISKAKGQPREPQVYTLPPSREEMTKNQVSLWCLVKGFYPSDIAVEWESNGQPENNYKTTPPVLDSDGSFFLYSKLTVDKSRWQQGNVFSCSVMHEALHNHYTQKSLSLSPGK
light: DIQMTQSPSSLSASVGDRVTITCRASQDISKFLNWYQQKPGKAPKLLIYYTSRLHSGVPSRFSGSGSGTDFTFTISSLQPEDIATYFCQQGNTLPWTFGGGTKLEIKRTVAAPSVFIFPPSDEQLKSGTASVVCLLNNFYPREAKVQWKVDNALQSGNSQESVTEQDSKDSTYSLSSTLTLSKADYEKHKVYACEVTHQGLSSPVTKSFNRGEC
TDCC vs. NKM-1 Cells, EC50 (pM), naive T cells from PBMCs [4]: 2.6 pM | TDCC vs. OCI-AML-2 Cells, EC50 (pM), naive T cells from PBMCs [4]: 2 pM | TDCC vs. NALM-1 Cells, EC50 (pM), expanded T cells [5]: 3.6 pM | TDCC vs. OCI-AML-2 Cells, EC50 (pM), expanded T cells [5]: 23.3 pM | PBMC Cytotoxicity, EC50 (pM), MOLM13 cells, naive T cells from PBMCs [6]: 53.7 pM | TDCC, EC50 (pM), MOLM13 cells, expanded T cells [6]: 1.4 pM

B7: 16C5 anti-ILT3 antibody (antibody, V domains shown)
VH: EVQLQQSGPELVKPGASVKISCKASGYTFTDYNMDWVKQSHGKSLEWIGYIYPSNGGTGYNQKFKSKATLTVDKSSNTAYMELHSLTSEDSAVYYCARVPYYDYLYYYAMDYWGQGTSVTVSS
VL: QIVLSQSPAILSASPGEKVTMACRASSSVSFMHWYQQKPGSSPQPWIYATSNLASGVPARFSGSGSGTSYSLTISRVEAEDAATYYCQQWSTNPYMYTFGGGTKLEIK
Kd [2]: 0.7 nM

B8: 12A12 anti-ILT3 antibody (antibody, V domains shown)
VH: B7 VH with S54N, K65N, N77S, R98S, V99S, L105V, Y106G, Y107S
VL: QIVLTQSPAIMSASLGERVTMTCTASSSVSSSYLHWYQQKPGSSPKLWIYSTSNLASGVPARFSGSGSGTSYSLTISSMEAEDAATYYCHQYHRSPRTFGGGTKLEIK
Kd [2]: 8.5 nM

B9: anti-CD3 scFv clone (VH as SEQ ID NO: 149, VL as SEQ ID NO: 150) (scFv)
scFv: EVQLLESGGGLVQPGGSLKLSCAASGFTFNTYAMNWVRQAPGKCLEWVARIRSKYNNYATYYADSVKDRFTISRDDSKNTAYLQMNNLKTEDTAVYYCVRHGNFGNSYVSWFAYWGQGTLVTVSSGGGGSGGGGSGGGGSELVVTQEPSLTVSPGGTVTLTCRSSTGAVTTSNYANWVQQKPGQAPRGLIGGTNKRAPGTPARFSGSLLGGKAALTLSGVQPEDEAEYYCALWYSNLWVFGCGTKLTVL
notes: also called the CD3 scFv
Kd [9]: 6 nM
